Where no end group is shown, it is not given here. [ ]: non-standard residue; d: D form. pY = N[C@@H](Cc1ccc(OP(=O)(O)O)cc1)C(=O)O

Format in all cases: biochemical
One test concerns the target T1, PTP1B (Homo sapiens, UniProt P18031).
T1 construct: The 37 kDa form of PTP1B; from tissue; host or cells: placenta
T1 sequence (P18031 1-321 limits assumed): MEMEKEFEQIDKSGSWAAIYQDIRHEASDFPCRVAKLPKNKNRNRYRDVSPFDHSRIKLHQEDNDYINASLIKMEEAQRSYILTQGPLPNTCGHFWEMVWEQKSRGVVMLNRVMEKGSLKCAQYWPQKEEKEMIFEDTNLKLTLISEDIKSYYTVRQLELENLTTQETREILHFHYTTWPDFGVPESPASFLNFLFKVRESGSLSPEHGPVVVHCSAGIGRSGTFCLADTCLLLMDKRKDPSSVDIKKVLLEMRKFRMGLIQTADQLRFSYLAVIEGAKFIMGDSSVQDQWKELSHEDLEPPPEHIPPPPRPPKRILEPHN
As to the kind of experiment: Phosphatase assay with ENDY(P)INASL as substrate. The note with it: non-linear regression of substrate saturation curves, mean of two experiments. In outline:
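Sf9-expressed TC.PTP, TCΔC11.PTP and RPTPα, plus placental 37 kDa PTP1B, incubated with phosphopeptide ENDY(P)INASL and effectors in buffer M6 for 10 min at 30° C. Reaction stopped with acidic Norit A charcoal suspension; released radioactivity counted in cleared supernatant.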

The next test addresses T2, CD45 (Homo sapiens, UniProt P08575).
T2 construct: CD45 were purified from placenta and spleen, respectively; from tissue; host or cells: spleen
T2 sequence (P08575 26-1306): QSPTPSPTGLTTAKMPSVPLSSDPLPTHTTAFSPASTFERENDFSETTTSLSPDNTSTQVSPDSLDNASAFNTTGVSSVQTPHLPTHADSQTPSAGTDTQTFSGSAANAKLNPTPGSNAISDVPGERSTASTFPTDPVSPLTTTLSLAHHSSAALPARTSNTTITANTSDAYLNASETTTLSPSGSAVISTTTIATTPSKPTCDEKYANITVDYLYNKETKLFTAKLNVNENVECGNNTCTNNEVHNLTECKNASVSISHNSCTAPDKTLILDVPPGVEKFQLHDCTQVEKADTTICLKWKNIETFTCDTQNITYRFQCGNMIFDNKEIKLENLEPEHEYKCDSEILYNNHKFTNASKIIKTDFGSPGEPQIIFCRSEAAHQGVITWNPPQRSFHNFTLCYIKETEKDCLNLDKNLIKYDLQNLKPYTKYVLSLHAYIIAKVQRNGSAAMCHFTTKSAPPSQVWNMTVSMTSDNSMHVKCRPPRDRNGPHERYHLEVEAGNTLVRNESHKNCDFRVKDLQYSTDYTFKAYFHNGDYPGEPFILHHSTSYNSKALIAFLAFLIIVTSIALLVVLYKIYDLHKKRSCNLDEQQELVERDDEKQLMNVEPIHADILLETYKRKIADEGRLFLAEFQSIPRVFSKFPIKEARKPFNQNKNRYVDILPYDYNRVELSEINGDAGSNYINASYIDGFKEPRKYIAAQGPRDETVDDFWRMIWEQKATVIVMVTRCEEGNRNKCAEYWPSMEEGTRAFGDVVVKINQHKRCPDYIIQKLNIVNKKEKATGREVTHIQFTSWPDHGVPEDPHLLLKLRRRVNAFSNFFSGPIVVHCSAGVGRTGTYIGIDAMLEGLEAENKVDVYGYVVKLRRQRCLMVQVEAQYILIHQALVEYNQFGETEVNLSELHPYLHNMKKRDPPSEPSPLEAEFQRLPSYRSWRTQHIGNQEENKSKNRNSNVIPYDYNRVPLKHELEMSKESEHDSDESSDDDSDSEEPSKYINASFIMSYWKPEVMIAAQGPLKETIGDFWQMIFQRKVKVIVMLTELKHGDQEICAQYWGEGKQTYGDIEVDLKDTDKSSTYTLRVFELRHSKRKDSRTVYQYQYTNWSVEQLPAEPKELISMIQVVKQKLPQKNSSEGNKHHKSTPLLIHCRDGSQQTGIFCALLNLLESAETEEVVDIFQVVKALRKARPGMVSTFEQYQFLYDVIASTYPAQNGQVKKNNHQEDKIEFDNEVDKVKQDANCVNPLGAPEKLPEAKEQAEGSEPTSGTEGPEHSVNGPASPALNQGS
In words: Phosphatase assay with ENDY(P)INASL as substrate. In short, it runs like this:
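Dephosphorylation of ENDY(P)INASL was followed at 30° C over 10 minutes in buffer M6. Recombinant RPTPα and TC.PTP (Sf9) plus tissue-derived PTP1B (placenta, 37 kDa) and CD45 (spleen) served as enzymes; charcoal-cleared supernatant was counted.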

The target of a further test is T3, TC.PTP (Homo sapiens, UniProt P17706).
T3 construct: made in house; host or cells: Sf9 cells (baculovirus)
T3 sequence (P17706 1-415): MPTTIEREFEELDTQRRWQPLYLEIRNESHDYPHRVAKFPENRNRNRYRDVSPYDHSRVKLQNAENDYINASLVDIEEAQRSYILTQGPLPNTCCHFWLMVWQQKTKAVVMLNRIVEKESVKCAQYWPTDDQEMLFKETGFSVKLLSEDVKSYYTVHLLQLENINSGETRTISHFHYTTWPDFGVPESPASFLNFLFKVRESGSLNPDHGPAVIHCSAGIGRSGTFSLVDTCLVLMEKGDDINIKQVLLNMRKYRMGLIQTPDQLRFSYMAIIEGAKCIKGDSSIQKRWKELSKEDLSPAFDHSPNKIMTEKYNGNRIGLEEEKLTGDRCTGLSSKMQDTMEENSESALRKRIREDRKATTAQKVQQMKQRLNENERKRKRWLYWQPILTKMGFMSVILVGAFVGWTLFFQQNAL
In words: Determination of TC.PTP activity in immunoprecipitates. The note with it: for % Dephosphorylation: 100% = total bound radioactivity in the assay. The method, then: Immunoprecipitations were carded out in 500 μl buffer AT containing phosphatase (in the amount indicated in the tables below), 3 μl rabbit antisera #6228 raised against the baculovirus expressed TCΔC11.PTP (Zander et al., Biochemistry 30: 6964-6970, 1991) and 20 μl protein A agarose beads. The mixture was rotated overnight at 4° C. The beads were washed three times with HNTG and tested for PTP activity. No PTP activity was detected in controls without antisera.
Phosphatase assays with ENDY(P)INASL were performed in buffer M6. Aliquots of 30 μl or 60 μl containing the phosphopeptide, the phosphatase (-beads) and effectors were incubated for 10 minutes at 30° C. The reaction was stopped by adding 200 μl of a suspension of 10% activated, acid-washed Norit A charcoal (v/v) in 0.9N HCl, 0.1M pyrophosphate and 2 mM NaH2 PO4 (according to Streuli et al., Proc. Natl. Acad. Sci. USA 86: 8698-8702, 1989). The mixture was cleared by 10-minute centrifugation and the radioactivity of 150 μl of the supernate was determined. Assays with MBP and RCML were performed as described in Tonks et al., J. Biol. Chem. 263: 6722-6730, 1988. Protein concentration was determined with BSA as standard (Bradford, Anal. Biochem. 72: 248-254, 1976).

For “ENDY(P)INASL: ENDYINASL phosphorylated on its tyrosine residue (32P), used as PTP substrate (END[pY]INASL; also: phosphate 32P-labelled)”, the Km (commonly the concentration of substrate that gives half-maximal velocity) with PTP1B is 0.8 ± 0.45 µM; in the test with CD45 (non-linear regression of substrate saturation curves, mean of two experiments), 13.8 ± 0.28 µM. Moreover, in the test with CD45 (one unit = release of 1 nmol phosphate per minute), the Vmax was 1622 +/- 23 U/mg. Moreover, the “Lowest amount of immunoprecipitated phosphatase that could be detected with the substrate” value with TC.PTP (TC.PTP immunoprecipitates on beads) is recorded as 1 ng. For the same substance, the “% Dephosphorylation” value with TC.PTP (immunoprecipitated TC.PTP 0.3 ng) stood at 0%; with TC.PTP (immunoprecipitated TC.PTP 1 ng), 1.8%; with TC.PTP (immunoprecipitated TC.PTP 3 ng), 3.9%; with TC.PTP (immunoprecipitated TC.PTP 10 ng), 10.8%; in the test with TC.PTP (immunoprecipitated TC.PTP 30 ng), 17.5%; with TC.PTP (immunoprecipitated TC.PTP 100 ng), 28.1%.

The values are drawn from patent US5739278A, “Compositions for protein tyrosine phosphatases” (University of Washington, priority 1995, dated 1998).
